Source: the Human Domainome abundance scans (Beltran et al. 2025)

B1: Transcription elongation regulator 1-like protein, residues 448 to 504; numbered along this chain, Q5VWI1 (parent)
chain: LPLEERVTHFRDMLLERGVSAFSTWEKELHKIVFDPRYLLLNSEERKQIFEQFVKTR

Variants of: B1
Test: abundance fitness (aPCA) (normalised: wild type 0, dead -1); higher = more abundant; growth selection in yeast, the domain comes from the species named
Details: Homo sapiens

Abundance fitness of substitutions, site by site:
F22: Y -0.031, P -0.48, G 0.04, L -0.045, Q 0.199, I -0.797, S 0.063, D 0.292, M -0.431, N 0.471, R -0.155, T 0.048, V -0.439
T24: S -0.237, Q -0.503, G -0.662, P -0.571, A -0.561, H -0.361, V -0.59, L -0.559, C 0.197, I -0.692, R -0.701
W25: L -0.795, S -0.55, N -0.557, D -0.986, A -0.589, R -0.531, I -0.393, Q -0.751, G -0.898, M -0.154, V -0.668, Y 0.169, E -0.713
K31: P -0.681, M -0.496, R -0.662, L -0.781, C -0.457, F -0.587, V -0.705, S -0.789
K27: W -0.799, G -0.366, R -0.295, E -0.165, Q 0.101, S -0.679, V -0.422, C -0.032, F 0.197, H -0.612, A 0.073, T -0.711, P -0.627
Q48: K -0.31, L -0.082, C -0.227, R -0.165, N 0.751, G -0.237, W -0.05, A -0.036, V -0.065, M -0.002, E 0.006, S -0.139, D 0.297, I -0.213
H30: E -0.276, V -0.608, T -0.492, P 0.098, A -0.714, M -0.515, Y -0.337, N -0.547, I -0.439, K -0.403, G -0.505, L -0.544, R -0.295, S -0.585, W -0.138, D -0.235, C -0.569
Y38: L -0.5, G -0.786, R -0.669, P -0.653, T -0.69, S -0.898, A -0.815, W -1.06, M -0.801, V -0.767, F -0.129, I -0.645, K -0.275, Q -0.668
F34: W -0.343, M -0.04, A 0.029, T 0.245, I 0.199, K -0.063, R 0.099, V -0.085, D 0.351, L -0.019, G 0.11, S 0.229, C -0.104, H 0.156
I32: K -0.847, Y 0.058, F -0.433, C -0.484, S -0.916, E -0.633, M -0.466, W -0.514, V 0.086, A -0.909, L -0.494, D -0.852, T -0.81, P -0.418, G -0.764, R -0.538
E26: Q -0.355, P -0.294, V -0.914, C 0.153, T -0.524, D -0.168, K -1.04, G -0.643, L -0.564, F -0.617, A -0.636, R -0.861, S -0.658, M -0.09, W -0.84
L40: A -0.504, W -0.639, K -0.966, E -0.466, M -0.295, G -0.349, D -1.05, V -0.877, S -0.619, P -0.688
D35: G -0.757, T -0.892, S -0.944, H -0.354, P -0.722, A -1.02, V -0.836, R -0.436, E -0.667, W -0.861
S23: R -0.811, G -0.353
K47: E -0.58, S -0.627, D -0.747, H -0.109, W -0.602, L -0.286, T -0.73, I 0.151, A -0.381, V -0.501, R 0.025, C -0.165, F -0.04, G -0.31, Q 0.159, P -0.783
V33: E -0.076, S 0.028, C -0.514, W -0.415, P -0.112, A -0.138, L -0.47, H 0.238, K 0.062, T -0.423, R 0.108, I 0.129, M -0.227, G -0.764
R37: W -0.733, E -0.917, L -0.952, P -0.769, M -0.81, G -0.692, A -1.19, Q -0.829, C -0.75, V -0.564
P36: L -0.714, A -0.42, V -0.717, D -0.584, R -0.504, W -0.011, K 0.011, C -0.869, E -0.409, S -0.488, T -0.604, G -0.514
R46: C -0.657, L -0.697, V -0.436, F -0.533, A -0.057, T -0.815, S -0.644, K -0.429, W -0.012, Y -0.162, G -0.39
E45: Q -0.004, P -0.791, W -0.483, V -0.858, M -0.107, I -0.242, H -0.204, R -0.434, Y -0.557, T -0.515, L -0.067, G -0.427, S -0.514
L41: R -0.616, K -1.11, G -0.569, I -0.409, P -0.917, T -0.592, C -0.734, D -1.04, H -0.543, F -0.583, N -0.755, Y -0.755, Q -0.473, A -0.681, M -0.335, E -0.781, V -0.226
E28: D -0.673, Q -0.641, L -0.446, M -1.04, R -0.576, G -0.701, S -0.659, A -0.822, C -0.542, F -0.796, I -1.02, Y -0.946, V -0.71
E44: P -0.606, Q -0.143, S -0.187, G -0.211, I 0.179, M 0.253, C -0.195, F -0.21, H -0.415, V -0.159, Y -0.42, T -0.105, W -0.22, K 0.094, L -0.211, D 0.27, R -0.201
L29: Y 0.907, G -0.667, V -0.213, M 0.377, H 0.264, C -0.373, E 0.139, R 0.095, P -0.722, A -0.409, I 0.281, W -0.986, T -0.253, K 0.158, S -0.452
N42: Q 0.013, K -0.109, T -0.325, A -0.571, W -0.733, M -0.687, S 0.034, V -0.924, P -0.533, D 0.035, E -0.023, C -0.437, L -0.529
S43: E 0.341, M -0.134, G 0.034, K -0.145, R -0.156, L -0.065, A 0.016, V -0.309, F -0.328, W -0.424, Q 0.07, T -0.197, N -0.367
